Laboratory results as given in patent US20150203577A1 (Chugai, published 2015).

T1: mouse FcγRII (mouse, UniProt P08101 30-210)
T1 construct: Extracellular domain with C-terminal His tag; also called mFcγRII; mFcgRII
T1 sequence: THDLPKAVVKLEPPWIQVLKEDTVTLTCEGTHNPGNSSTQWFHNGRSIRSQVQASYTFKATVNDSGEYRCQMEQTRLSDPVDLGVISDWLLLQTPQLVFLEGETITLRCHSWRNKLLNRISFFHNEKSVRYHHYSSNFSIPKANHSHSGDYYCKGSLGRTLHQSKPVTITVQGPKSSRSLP

T2: mouse FcγRIII (mouse, UniProt P08508 31-215)
T2 construct: Extracellular domain with C-terminal His tag; also called mFcγRIII; mFcgRIII
T2 chain: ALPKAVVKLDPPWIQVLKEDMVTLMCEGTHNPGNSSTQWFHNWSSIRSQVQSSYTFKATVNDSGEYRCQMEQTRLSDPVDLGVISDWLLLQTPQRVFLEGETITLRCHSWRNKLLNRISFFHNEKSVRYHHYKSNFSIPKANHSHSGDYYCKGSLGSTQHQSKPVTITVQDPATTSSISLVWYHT


Experiments:
mouse FcγRII [1] = target: T1, mouse FcγRII; assay: SPR (Biacore T200); KD of H237-mIgG1/MRAL-k0 / KD of variant
mouse FcγRIII [2] = target: T2, mouse FcγRIII; assay: as above
mouse FcγRII [3] = target: T1, mouse FcγRII; assay: SPR (Biacore T200); KD of H237-MB630/MRAL-k0 / KD of variant
mouse FcγRIII [4] = target: T2, mouse FcγRIII; assay: as above

Binder	relative mFcγRII-binding activity (mIgG1 = 1) (mouse FcγRII [1]) [fold]	relative mFcγRIII-binding activity (mIgG1 = 1) (mouse FcγRIII [2]) [fold]	Relative mFcγRII-binding activity (MB630 = 1) (mouse FcγRII [3]) [fold]	Relative mFcγRIII-binding activity (MB630 = 1) (mouse FcγRIII [4]) [fold]
MB808 (antibody, mouse IgG1, kappa, CH name; VH H237 + CH, L chain MRAL-k0; copies: 2 + 2) heavy: QVQLQESGPGLVKPSETLSLTCAVSGHSISHDHAWSWVRQPPGEGLEWIGFISYSGITNYNPSLQGRVTISRDNSKNTLYLQMNSLRAEDTAVYYCARSLARTTAMDYWGEGTLVTVSSAKTTPPSVYPLAPGSAAQTNSMVTLGCLVKGYFPEPVTVTWNSGSLSSGVHTFPAVLQSDLYTLSSSVTVPSSTWPSETVTCNVAHPASSTKVDKKIVPRDCGCKPCICEPNEVELVFIFPPKPKDVLTITLTPKVTCVVVDISKDDPEVQFSWFVDDVEVHTAQTQPREELFNSTFRSVSELPIMHQDWLNGKEFKCRVNSAGFPAPIEKTISKTKGRPKAPQVYTIPPPKEQMAKDKVSLTCMITDFFPEDITVEWQWNGQPAENYKNTQPIMDTDGSYFVYSKLNVQKSNWEAGNTFTCSVLHEGLHNHHTEKSLSHSPGK light: not shown	29.2	0.78	2.22	3.4
MB811 (antibody, mouse IgG1, kappa, CH name; VH H237 + CH, L chain MRAL-k0; copies: 2 + 2) heavy: QVQLQESGPGLVKPSETLSLTCAVSGHSISHDHAWSWVRQPPGEGLEWIGFISYSGITNYNPSLQGRVTISRDNSKNTLYLQMNSLRAEDTAVYYCARSLARTTAMDYWGEGTLVTVSSAKTTPPSVYPLAPGSAAQTNSMVTLGCLVKGYFPEPVTVTWNSGSLSSGVHTFPAVLQSDLYTLSSSVTVPSSTWPSETVTCNVAHPASSTKVDKKIVPRDCGCKPCICEPNEVELVFIFPPKPKDVLTITLTPKVTCVVVDISKDDPEVQFSWFVDDVEVHTAQTQPREELFNSTFRSVSELPIMHQDWLNGKEFKCRVNSAAFPAPIYKTISKTKGRPKAPQVYTIPPPKEQMAKDKVSLTCMITDFFPEDITVEWQWNGQPAENYKNTQPIMDTDGSYFVYSKLNVQKSNWEAGNTFTCSVLHEGLHNHHTEKSLSHSPGK light: not shown	22.2	0.43	1.69	1.87
MB810 (antibody, mouse IgG1, kappa, CH name; VH H237 + CH, L chain MRAL-k0; copies: 2 + 2) heavy: QVQLQESGPGLVKPSETLSLTCAVSGHSISHDHAWSWVRQPPGEGLEWIGFISYSGITNYNPSLQGRVTISRDNSKNTLYLQMNSLRAEDTAVYYCARSLARTTAMDYWGEGTLVTVSSAKTTPPSVYPLAPGSAAQTNSMVTLGCLVKGYFPEPVTVTWNSGSLSSGVHTFPAVLQSDLYTLSSSVTVPSSTWPSETVTCNVAHPASSTKVDKKIVPRDCGCKPCICEPNEVELVFIFPPKPKDVLTITLTPKVTCVVVDISKDDPEVQFSWFVDDVEVHTAQTQPREELFNSTFRSVSELPIMHQDWLNGKEFKCRVNSAAFPAYIEKTISKTKGRPKAPQVYTIPPPKEQMAKDKVSLTCMITDFFPEDITVEWQWNGQPAENYKNTQPIMDTDGSYFVYSKLNVQKSNWEAGNTFTCSVLHEGLHNHHTEKSLSHSPGK light: not shown	20.8	0.52	1.58	2.24
MB809 (antibody, mouse IgG1, kappa, CH name; VH H237 + CH, L chain MRAL-k0; copies: 2 + 2) heavy: QVQLQESGPGLVKPSETLSLTCAVSGHSISHDHAWSWVRQPPGEGLEWIGFISYSGITNYNPSLQGRVTISRDNSKNTLYLQMNSLRAEDTAVYYCARSLARTTAMDYWGEGTLVTVSSAKTTPPSVYPLAPGSAAQTNSMVTLGCLVKGYFPEPVTVTWNSGSLSSGVHTFPAVLQSDLYTLSSSVTVPSSTWPSETVTCNVAHPASSTKVDKKIVPRDCGCKPCICEPNEVELVFIFPPKPKDVLTITLTPKVTCVVVDISKDDPEVQFSWFVDDVEVHTAQTQPREELFNSTFRSVSELPIMHQDWLNGKEFKCRVNSAAFPAFIEKTISKTKGRPKAPQVYTIPPPKEQMAKDKVSLTCMITDFFPEDITVEWQWNGQPAENYKNTQPIMDTDGSYFVYSKLNVQKSNWEAGNTFTCSVLHEGLHNHHTEKSLSHSPGK light: not shown	19	0.44	1.44	1.92

Other lines, results leading:

relative mFcγRII-binding activity (mIgG1 = 1) (mouse FcγRII [1]) [fold]	relative mFcγRIII-binding activity (mIgG1 = 1) (mouse FcγRIII [2]) [fold]	Relative mFcγRII-binding activity (MB630 = 1) (mouse FcγRII [3]) [fold]	Relative mFcγRIII-binding activity (MB630 = 1) (mouse FcγRIII [4]) [fold]	Binder
16.3	0.3	1.24	1.29	MB813 (antibody, mouse IgG1, kappa, CH name; VH H237 + CH, L chain MRAL-k0; copies: 2 + 2) heavy: QVQLQESGPGLVKPSETLSLTCAVSGHSISHDHAWSWVRQPPGEGLEWIGFISYSGITNYNPSLQGRVTISRDNSKNTLYLQMNSLRAEDTAVYYCARSLARTTAMDYWGEGTLVTVSSAKTTPPSVYPLAPGSAAQTNSMVTLGCLVKGYFPEPVTVTWNSGSLSSGVHTFPAVLQSDLYTLSSSVTVPSSTWPSETVTCNVAHPASSTKVDKKIVPRDCGCKPCICEPNEVELVFIFPPKPKDVLTITLTPKVTCVVVDISKDDPEVQFSWFVDDVEVHTAQTQPREEQFNSTFRSVSELPIMHQDWLNGKEFKCRVDSAAFPAFIEKTISKTKGRPKAPQVYTIPPPKEQMAKDKVSLTCMITDFFPEDITVEWQWNGQPAENYKNTQPIMDTDGSYFVYSKLNVQKSNWEAGNTFTCSVLHEGLHNHHTEKSLSHSPGK light: not shown
30.4	0.65	2.31	2.84	MB816 (antibody, mouse IgG1, kappa, CH name; VH H237 + CH, L chain MRAL-k0; copies: 2 + 2) heavy: QVQLQESGPGLVKPSETLSLTCAVSGHSISHDHAWSWVRQPPGEGLEWIGFISYSGITNYNPSLQGRVTISRDNSKNTLYLQMNSLRAEDTAVYYCARSLARTTAMDYWGEGTLVTVSSAKTTPPSVYPLAPGSAAQTNSMVTLGCLVKGYFPEPVTVTWNSGSLSSGVHTFPAVLQSDLYTLSSSVTVPSSTWPSETVTCNVAHPASSTKVDKKIVPRDCGCKPCICEPNEVELVFIFPPKPKDVLTITLTPKVTCVVVDISKDDPEVQFSWFVDDVEVHTAQTQPREEQFNSTFRSVSELPIMHQDWLNGKEFKCRVMSDAFPAPIEKTISKTKGRPKAPQVYTIPPPKEQMAKDKVSLTCMITDFFPEDITVEWQWNGQPAENYKNTQPIMDTDGSYFVYSKLNVQKSNWEAGNTFTCSVLHEGLHNHHTEKSLSHSPGK light: not shown
18	0.34	1.37	1.48	MB814 (antibody, mouse IgG1, kappa, CH name; VH H237 + CH, L chain MRAL-k0; copies: 2 + 2) heavy: QVQLQESGPGLVKPSETLSLTCAVSGHSISHDHAWSWVRQPPGEGLEWIGFISYSGITNYNPSLQGRVTISRDNSKNTLYLQMNSLRAEDTAVYYCARSLARTTAMDYWGEGTLVTVSSAKTTPPSVYPLAPGSAAQTNSMVTLGCLVKGYFPEPVTVTWNSGSLSSGVHTFPAVLQSDLYTLSSSVTVPSSTWPSETVTCNVAHPASSTKVDKKIVPRDCGCKPCICEPNEVELVFIFPPKPKDVLTITLTPKVTCVVVDISKDDPEVQFSWFVDDVEVHTAQTQPREEQFNSTFRSVSELPIMHQDWLNGKEFKCRVDSAAFPAYIEKTISKTKGRPKAPQVYTIPPPKEQMAKDKVSLTCMITDFFPEDITVEWQWNGQPAENYKNTQPIMDTDGSYFVYSKLNVQKSNWEAGNTFTCSVLHEGLHNHHTEKSLSHSPGK light: not shown
17.6	0.3	1.34	1.3	MB815 (antibody, mouse IgG1, kappa, CH name; VH H237 + CH, L chain MRAL-k0; copies: 2 + 2) heavy: QVQLQESGPGLVKPSETLSLTCAVSGHSISHDHAWSWVRQPPGEGLEWIGFISYSGITNYNPSLQGRVTISRDNSKNTLYLQMNSLRAEDTAVYYCARSLARTTAMDYWGEGTLVTVSSAKTTPPSVYPLAPGSAAQTNSMVTLGCLVKGYFPEPVTVTWNSGSLSSGVHTFPAVLQSDLYTLSSSVTVPSSTWPSETVTCNVAHPASSTKVDKKIVPRDCGCKPCICEPNEVELVFIFPPKPKDVLTITLTPKVTCVVVDISKDDPEVQFSWFVDDVEVHTAQTQPREEQFNSTFRSVSELPIMHQDWLNGKEFKCRVDSAAFPAPIYKTISKTKGRPKAPQVYTIPPPKEQMAKDKVSLTCMITDFFPEDITVEWQWNGQPAENYKNTQPIMDTDGSYFVYSKLNVQKSNWEAGNTFTCSVLHEGLHNHHTEKSLSHSPGK light: not shown
33.4	0.68	2.54	2.93	MB812 (antibody, mouse IgG1, kappa, CH name; VH H237 + CH, L chain MRAL-k0; copies: 2 + 2) heavy: QVQLQESGPGLVKPSETLSLTCAVSGHSISHDHAWSWVRQPPGEGLEWIGFISYSGITNYNPSLQGRVTISRDNSKNTLYLQMNSLRAEDTAVYYCARSLARTTAMDYWGEGTLVTVSSAKTTPPSVYPLAPGSAAQTNSMVTLGCLVKGYFPEPVTVTWNSGSLSSGVHTFPAVLQSDLYTLSSSVTVPSSTWPSETVTCNVAHPASSTKVDKKIVPRDCGCKPCICEPNEVELVFIFPPKPKDVLTITLTPKVTCVVVDISKDDPEVQFSWFVDDVEVHTAQTQPREEQFNSTFRSVSELPIMHQDWLNGKEFKCRVDSAGFPAPIEKTISKTKGRPKAPQVYTIPPPKEQMAKDKVSLTCMITDFFPEDITVEWQWNGQPAENYKNTQPIMDTDGSYFVYSKLNVQKSNWEAGNTFTCSVLHEGLHNHHTEKSLSHSPGK light: not shown
